Experimental findings from patent US11167035B2, “Insulin compositions and method of making a composition” (Novo Nordisk A/S, priority 2005, dated 2021) are described below.

This series in a line: SEC on Superose 6 PC, insulin self association. It is filed as physicochemical. The following applies: 600 μM insulin.

Experimental: Analysis by size exclusion chromatography (SEC) on a Superose 6 PC column (0.32*30 cm) using isotonic 10 mM tris-buffered saline optionally added 2 mM phenol at 37° C. and pH 7.3, injection volume of 20 μL, flow of 0.05 mL/min and run time 130 min. First reference of Blue dextran (>>5 MDa, KAV 0.0), Thyroglobulin (669 kDa, KAV 0.28), Ferritin (440 kDa, KAV 0.39), Ovalbumin (44.5 kDa, KAV 0.56), Ribonuclease (13.7 kDa, KAV 0.69) and a second reference of Albumin (66 kDa, KAV 0.53), Co(III)insulin-hexamer (35 kDa, KAV 0.61), and monomeric insulin X2 (6 kDa, KAV 0.73). Retention time of blue dextran was 17.9 min (to) and 0.74 min without column (td), and retention time of albumin (HSA) was about 34.1 min, KAV=(t−t0)/(V/f+td−t0) with
KAV area peak1 is measured from KAV=0 to KAV=0.46 (32 min) as relative area % of total area for KAV<0.46 corresponding to self association larger than albumin. For KAV peak 1 about 0.56 (albumin size) integration cut is between albumin size and insulin hexamer size.
For SEC method without phenol in eluent peak1 contain associated forms larger than albumin and peak2 contain dihexameric, hexameric, dimeric and monomeric forms of insulin.
For SEC method including 2 mM phenol in the eluent peak1 contain dihexameric and other larger forms of insulin and peak2 contain hexameric, dimeric and monomeric forms of insulin.
The formulations were studied after storage 2 week at 37C compared to storage at 5C by the SEC method described in example 4 using an eluent with 2 mM phenol. Reference formulations without citrate at 3, 5 and 6 Zn/6ins.deriv. were included.

Turning to “B29Nε-(2-{[(2-Carboxy-ethyl)-(15-carboxy-pentadecanoyl)-amino]-methyl}-benzoyl) desB30 human insulin”, where the note is “2 zinc/hexamer”, the “Kav 2 Zn peak 1” value amounted to 0.16 and the “Relative area % peak 1” value came to 54%. Moreover, for the setting “6 zinc/hexamer”, the “Kav 6 Zn peak 1” value is 0.03 and the “Relative area % peak 1” value amounted to 93%.
In the case of “B29Nε-(4-{[(2-Carboxy-ethyl)-(14-carboxy-tetradecanoyl)-amino]-methyl}-benzoyl) desB30 human insulin”, under “2 zinc/hexamer”, the “Kav 2 Zn peak 1” value is given as 0.09 and the “Relative area % peak 1” value came to 55%. Moreover, where the note is “6 zinc/hexamer”, the “Kav 6 Zn peak 1” value is 0.00 and the “Relative area % peak 1” value came to 96%.
Regarding “B29Nε-(4-{[(2-Carboxy-ethyl)-(15-carboxy-pentadecanoyl)-amino]-methyl}-benzoyl) desB30 human insulin”, under “2 zinc/hexamer”, the “Kav 2 Zn peak 1” value amounted to 0.01 and the “Relative area % peak 1” value was 84%. Further, where the note is “6 zinc/hexamer”, the “Kav 6 Zn peak 1” value is reported as 0.00 and the “Relative area % peak 1” value is 98%.
For “B29Nε-[(5-{[(2-Carboxy-ethyl)-(15-carboxy-pentadecanoyl)-amino]-methyl}-furan-2-carbonyl) desB30 human insulin”, in that order: 0.02, 81%, 0.03 and 96%.
For “B29Nε-hexadecandioyl-gamma-Glu-(3-(2-{2-[2-(2-amino-ethoxy)-ethoxy]-ethoxy}-ethoxy)-propionyl desB30 human insulin”, in that order: 0.09, 79%, 0.06 and 89%.
